Laboratory results taken from PMC11239949.

What was measured:
[1] = target: Mucin 1 (MUC1) on MCF-7 cells; aptamer designed against the VNTR region (UniProt P15941); assay: whole-cell capture on magnetic beads (fluorescence); details: multivalent (apparent), 5x10^4 DAPI-stained MCF-7 cells added to 500 uL A-f-M13-MB (resuspended in PBS), 30 min, 37 C, one-site fit over aptamer concentration
[2] = target: Mucin 1 (MUC1) on MCF-7 cells; aptamer designed against the VNTR region (UniProt P15941); assay: whole-cell fluorescence binding; details: DBCO or NH2 at 5' (which version was used as free aptamer is not stated); 5x10^4 DAPI-stained MCF-7 cells added to 500 uL A-f-M13-MB (resuspended in PBS), 30 min, 37 C; one-site fit over aptamer concentration

Chain of UniProt P15941 (P15941 whole entry): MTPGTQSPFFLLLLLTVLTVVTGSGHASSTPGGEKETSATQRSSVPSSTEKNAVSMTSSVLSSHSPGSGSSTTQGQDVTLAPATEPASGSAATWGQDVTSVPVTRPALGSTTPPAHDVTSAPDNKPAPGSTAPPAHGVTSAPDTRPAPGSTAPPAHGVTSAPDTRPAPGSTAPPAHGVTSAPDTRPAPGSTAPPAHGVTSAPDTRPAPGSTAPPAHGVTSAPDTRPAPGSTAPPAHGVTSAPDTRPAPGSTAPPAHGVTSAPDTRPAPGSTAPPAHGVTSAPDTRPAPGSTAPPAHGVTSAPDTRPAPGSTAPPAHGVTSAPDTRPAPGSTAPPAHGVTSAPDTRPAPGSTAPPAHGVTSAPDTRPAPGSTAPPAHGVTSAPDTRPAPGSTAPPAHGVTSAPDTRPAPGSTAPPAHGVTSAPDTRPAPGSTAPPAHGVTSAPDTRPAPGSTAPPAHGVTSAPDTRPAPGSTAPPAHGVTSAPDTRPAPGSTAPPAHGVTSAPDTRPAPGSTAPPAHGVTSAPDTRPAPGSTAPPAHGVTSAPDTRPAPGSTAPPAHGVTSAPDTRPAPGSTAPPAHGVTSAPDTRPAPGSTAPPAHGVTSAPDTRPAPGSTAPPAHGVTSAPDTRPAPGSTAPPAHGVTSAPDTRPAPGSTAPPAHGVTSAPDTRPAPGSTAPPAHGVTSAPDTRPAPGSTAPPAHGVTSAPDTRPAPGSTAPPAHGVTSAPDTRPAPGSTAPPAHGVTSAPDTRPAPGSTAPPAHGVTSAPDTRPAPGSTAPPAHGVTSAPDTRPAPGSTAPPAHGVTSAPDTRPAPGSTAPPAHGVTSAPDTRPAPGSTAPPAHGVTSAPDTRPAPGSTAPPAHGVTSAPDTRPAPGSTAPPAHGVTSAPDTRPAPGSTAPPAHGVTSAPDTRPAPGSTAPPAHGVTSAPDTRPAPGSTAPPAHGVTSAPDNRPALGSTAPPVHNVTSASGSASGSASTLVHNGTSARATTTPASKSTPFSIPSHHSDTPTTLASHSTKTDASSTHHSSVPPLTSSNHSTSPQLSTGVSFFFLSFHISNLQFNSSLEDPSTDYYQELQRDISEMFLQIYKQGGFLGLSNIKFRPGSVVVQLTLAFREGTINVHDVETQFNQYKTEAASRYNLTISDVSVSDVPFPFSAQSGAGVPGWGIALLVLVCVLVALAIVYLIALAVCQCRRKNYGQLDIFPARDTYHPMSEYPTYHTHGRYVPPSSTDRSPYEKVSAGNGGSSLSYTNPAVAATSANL

TTTTTGCAGTTGATCCTTTGGATACCCTGG [DBCO-Apt (S2.2) clicked on M13 pVIII]
Kd ([1]; A-f-M13-MB, flexible phage, 5' DBCO, coupled to N3-PEG on M13 phage sidewall): 0.00109 nM
Kd ([1]; A-r-M13-MB, PFA-treated rigid phage, 5' DBCO, coupled to N3-PEG on M13 phage sidewall): 0.0248 nM

TTTTTGCAGTTGATCCTTTGGATACCCTGG [S2.2 aptamer, free (FAM-labelled)]
Kd [2]: 260 nM

TTTTTGCAGTTGATCCTTTGGATACCCTGG [NH2-Apt (S2.2) on magnetic beads]
Kd ([1]; A-MB, 5' NH2, coupled to carboxyl magnetic beads): 21 nM
